One block for each binder: values may come before it. Non-standard residues stand in square brackets, D forms with d. No end group written: not given here. pT = C[C@@H](OP(=O)(O)O)[C@H](N)C(=O)O
Target: HA-EGFP-Plk1, P53350
Experiment: ELISA competition
Settings: remark: other sources report otherwise

HA-EGFP-Plk1, P53350, sequence (P53350 whole entry): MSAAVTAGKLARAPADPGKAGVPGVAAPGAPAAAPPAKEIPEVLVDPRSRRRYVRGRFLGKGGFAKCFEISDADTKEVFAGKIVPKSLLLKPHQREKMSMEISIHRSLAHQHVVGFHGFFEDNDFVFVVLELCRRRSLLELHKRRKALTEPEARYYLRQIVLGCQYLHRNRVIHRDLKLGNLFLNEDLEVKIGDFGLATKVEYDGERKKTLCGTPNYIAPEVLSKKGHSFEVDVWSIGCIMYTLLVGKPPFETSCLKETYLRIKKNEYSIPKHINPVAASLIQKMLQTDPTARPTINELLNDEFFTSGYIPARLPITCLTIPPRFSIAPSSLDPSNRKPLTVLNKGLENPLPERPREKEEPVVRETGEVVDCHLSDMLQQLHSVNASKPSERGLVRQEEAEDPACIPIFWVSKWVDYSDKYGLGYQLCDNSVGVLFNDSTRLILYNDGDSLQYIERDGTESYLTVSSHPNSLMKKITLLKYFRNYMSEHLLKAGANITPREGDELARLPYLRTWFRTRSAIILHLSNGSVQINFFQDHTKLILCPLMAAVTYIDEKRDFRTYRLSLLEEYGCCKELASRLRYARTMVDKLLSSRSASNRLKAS

fold loss of binding affinity: > 100 fold
B1: peptide 11 (Example 12), S/A mutant of 8 (peptide)
peptide: PLHA[pT]
modifications: also: Pro 1 modified as in ether analogue 8 (structure not given here)

fold loss of binding affinity: > 100 fold
B2: peptide 9 (Example 12), S/A mutant of 7 (peptide)
peptide: PLHA[pT]
modifications: also: Pro 1 modified as in ether analogue 7 (structure not given here)

fold decrease in binding against 3l: 100 fold
B3: peptide 5 (Example 15), S/A mutant of 3l (peptide)
peptide: PLHA[pT]
modifications: also: further groups not given here

From US20120065146A1
